Data: patent publication US20240024499A1

Molecular target: glypican-3 (GPC3) on GPC3-positive liver cancer cell lines HepG2-C3A and Hep3B (human) (UniProt P51654)
Assay: flow cytometry on GPC3-positive HepG2-C3A and Hep3B cells, anti-hIgG-AF488 detection

glypican-3 (GPC3) on GPC3-positive liver cancer cell lines HepG2-C3A and Hep3B (human), sequence (P51654 25-580): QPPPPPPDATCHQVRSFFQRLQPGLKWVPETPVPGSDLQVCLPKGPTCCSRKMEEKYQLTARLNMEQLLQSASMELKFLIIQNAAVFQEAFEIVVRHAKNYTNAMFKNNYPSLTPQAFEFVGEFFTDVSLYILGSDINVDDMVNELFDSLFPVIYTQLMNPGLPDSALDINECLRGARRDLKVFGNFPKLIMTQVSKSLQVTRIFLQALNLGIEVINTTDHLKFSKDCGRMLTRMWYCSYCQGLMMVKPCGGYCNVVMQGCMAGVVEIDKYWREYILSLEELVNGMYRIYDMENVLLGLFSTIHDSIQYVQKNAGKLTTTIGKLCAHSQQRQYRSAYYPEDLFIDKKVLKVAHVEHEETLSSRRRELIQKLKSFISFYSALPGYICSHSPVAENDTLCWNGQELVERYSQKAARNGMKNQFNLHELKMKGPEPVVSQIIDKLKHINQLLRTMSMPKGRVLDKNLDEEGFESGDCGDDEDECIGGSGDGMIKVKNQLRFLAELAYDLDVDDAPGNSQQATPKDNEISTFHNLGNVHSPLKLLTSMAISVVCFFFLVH

EC50: 3.5 to 4 nM
B1: ARD103 antibody (antibody, human IgG1, kappa, V domains shown)
VH: QVQLVESGAEVKKPGASVKVSCKASGYTFTDYEMHWVRQAPGQGLEWMGALDPKTGDTAYSQKFKGRVTLTADKSTSTAYMELSSLTSEDTAVYYCTRFYSYTYWGQGTLVTVSS
VL: DVVMTQSPLSLPVTPGEPASISCRSSQSLVHSNGNTYLHWYLQKPGQSPQLLIYKVSNRFSGVPDRFSGSGSGTDFTLKISRVEAEDVGVYYCSQNTHVPPTFGQGTKLEIKR
